Source: US20220041738A1 (SAITAMA MEDICAL UNIVERSITY, published 2022)
Numbering of substitutions follows the chain as printed. One block for each binder: values may come before it.

Assays:
[1] = target: T1, human ALK2 extracellular domain with C-terminal His tag (E. coli) (human, UniProt Q04771 21-123); assay: SPR, Biacore T200; antibody captured from culture supernatant by anti-human IgG (Fc), antigen as analyte; 1:1 binding model
T1 construct: Expressed in E. coli SHuffle T7, purified to a single band of 12 kDa; also called ALK2-ECD; human ALK2-ECD; not shown: C-terminal His tag from pET-28b(+)
T1 sequence: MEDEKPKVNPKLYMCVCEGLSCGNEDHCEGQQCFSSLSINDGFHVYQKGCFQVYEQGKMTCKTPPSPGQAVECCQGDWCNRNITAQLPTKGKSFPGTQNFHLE
Method: The dissociation constants of the humanized A2-11E antibodies (IgG1) and the humanized A2-25C antibodies (IgG1) prepared in Example 18)-5 for the antigen (human ALK2 extracellular domain prepared in Example 14)-1) were measured using Biacore T200 (GE Healthcare Bio-Sciences Corp.) by the capture method which involves capturing each antibody as a ligand onto an immobilized anti-human IgG (Fc) antibody and assaying the antigen as an analyte. Approximately 1000 RU of the anti-human IgG (Fc) antibody (Human Antibody Capture kit, GE Healthcare Bio-Sciences Corp.) was covalently bound to a sensor chip CM5 (GE Healthcare Bio-Sciences Corp.) by the amine coupling method. Similarly, this antibody was immobilized onto a reference cell. The running buffer used was HBS-EP+(10 mM HEPES (pH 7.4), 0.15 M NaCl, 3 mM EDTA, and 0.05% Surfactant P20). The culture supernatant containing the antibody was added onto the anti-human IgG (Fc) antibody-immobilized chip for approximately 1 minute. Then, serially diluted solutions (0.78 to 200 nM) of the antigen were added thereto at a flow rate of 30 μl/min for 300 seconds. Subsequently, the dissociation phase was monitored for 600 seconds. 3 M MgCl₂ was added thereto as a regenerating solution at a flow rate of 10 μl/min for 30 seconds. The data was analyzed using 1:1 binding models of analytical software (BIAevaluation software, version 1.0) to calculate an association rate constant ka, a dissociation rate constant kd, and a dissociation constant (KD; KD=kd/ka).

[2] = target: T2, Recombinant Human ALK2 Fc Chimera (Sino Biological Inc.) (human, UniProt Q04771 21-123); assay: SPR, Biacore T200; antigen immobilised on CM5 chip, antibody as analyte; bivalent binding model
T2 construct: Bought product; not shown: Fc of the bought chimera
T2 sequence: T1 sequence
Method: The dissociation constants of humanized hA2-15A-H4/L6, humanized hA2-27D-H2/L2, and humanized hA2-27D-H3/L4 prepared in Example 8)-5 for the antigen (Recombinant Human ALK2 Fc Chimera, Sino Biological Inc.) were measured in Biacore T200 (GE Healthcare Bio-Sciences Corp.) by using the antigen immobilized as a ligand and each antibody as an analyte. The antigen was added at 1.25 μg/mL for 60 seconds and immobilized onto a sensor chip CM5 (GE Healthcare Bio-Sciences Corp.). The running buffer used was HBS-EP+(10 mM HEPES (pH 7.4), 0.15 M NaCl, 3 mM EDTA, and 0.05% Surfactant P20). Serially diluted solutions (0.2 to 50 nM) of the antibody were added onto the antigen-immobilized chip at a flow rate of 30 μl/min for 300 seconds. Subsequently, the dissociation phase was monitored for 1800 seconds. A 10 mM glycine/hydrochloric acid solution (pH 1.5) was added thereto as a regenerating solution at a flow rate of 10 μl/min for 30 seconds twice. The data was analyzed using bivalent binding models of analytical software (BIAevaluation software, version 1.0) to calculate an association rate constant ka, a dissociation rate constant kd, and a dissociation constant (KD; KD=kd/ka).

[3] = target: T1, human ALK2 extracellular domain with …; assay: SPR, Biacore T200; antibody captured by anti-human IgG (Fc), antigen as analyte; 1:1 binding model
Method: The dissociation constants of humanized hA2-15A-H4/L6 (IgG2) prepared in Example 11)-4, and humanized hA2-27D-H2/L2 (IgG1 LALA) and humanized hA2-27D-H3/L4 (IgG1 LALA) prepared in Example 12)-4 for the antigen (human ALK2 extracellular domain prepared in Example 14)-1) were measured using Biacore T200 (GE Healthcare Bio-Sciences Corp., Japan) by the capture method which involves capturing each antibody as a ligand onto an immobilized anti-human IgG (Fc) antibody and assaying the antigen as an analyte. Approximately 1000 RU of the anti-human IgG (Fc) antibody (Human Antibody Capture kit, GE Healthcare Bio-Sciences Corp.) was covalently bound to a sensor chip CM5 (GE Healthcare Bio-Sciences Corp.) by the amine coupling method. Similarly, this antibody was immobilized onto a reference cell. The running buffer used was HBS-EP+(10 mM HEPES (pH 7.4), 0.15 M NaCl, 3 mM EDTA, and 0.05% Surfactant P20). The antibody was added onto the anti-human IgG (Fc) antibody-immobilized chip for approximately 1 minute. Then, serially diluted solutions (0.78 to 200 nM) of the antigen were added thereto at a flow rate of 30 μl/min for 300 seconds. Subsequently, the dissociation phase was monitored for 600 seconds. A 3 M magnesium chloride solution was added thereto as a regenerating solution at a flow rate of 10 μl/min for 30 seconds. The data was analyzed using 1:1 binding models of analytical software (BIAevaluation software, version 1.0) to calculate an association rate constant ka, a dissociation rate constant kd, and a dissociation constant (KD; KD=kd/ka).

B1: humanized hA2-25C-H3/L2 (antibody, human IgG1, kappa, V domains shown)
VH: EVQLVESGGGLVQPGGSLRLSCAASGFTFSYYAMSWVRQAPGKGLEWVASISRGGDNTYYRDSVKGRFTTSRDNSKNTLYLQMNSLRAEDTAVYYCARLNYNNYFDYWGQGTLVTVSS
VL: DIQMTQSPSSLSASVGDRVTITCQASQDIGNWLSWYQQKPGKAPKLLIYGATSLADGVPSRFSGSRSGTDYTLTISSLQPEDFATYYCLQAYSAPFTFGQGTKVEIKR
notes: Human IgG1, kappa; used as culture supernatant of FreeStyle 293F cells
Kd [1]: 53.3 nM

B3: humanized hA2-25C-H4/L1 (antibody, human IgG1, kappa, V domains shown)
VH: B1 VH with V93T, T112V
VL: B1 VL with R66G, Y71F
notes: as for B1
Kd [1]: 81.8 nM

B5: humanized hA2-25C-H4/L3 (antibody, human IgG1, kappa, V domains shown)
VH: B1 VH with V93T, T112V
VL: B1 VL with A43S, D70Q, Q100S
notes: as for B1
Kd [1]: 27.9 nM

B7: humanized hA2-27D-H2/L2 (antibody, human IgG1)
heavy: not shown
light: EIVLTQSPGTLSLSPGERATLSCLASSSVSYMTWYQQKPGQSPRLWIYGTSNLASGVPDRFSGSGSGTDFTLTISRLEPEDFAVYYCLHLTSYPPYTFGQGTKVEIKRAVAAPSVFIFPPSDEQLKSGTASVVCLLNNFYPREAKVQWKVDNALQSGNSQESVTEQDSKDSTYSLSSTLTLSKADYEKHKVYACEVTHQGLSSPVTKSFNRGEC
notes: Human IgG1, kappa; also called humanized A2-27D antibody (IgG1)
Kd [2]: 5.7 nM

B8: humanized hA2-27D-H2/L2 (IgG1 LALA) (antibody)
heavy: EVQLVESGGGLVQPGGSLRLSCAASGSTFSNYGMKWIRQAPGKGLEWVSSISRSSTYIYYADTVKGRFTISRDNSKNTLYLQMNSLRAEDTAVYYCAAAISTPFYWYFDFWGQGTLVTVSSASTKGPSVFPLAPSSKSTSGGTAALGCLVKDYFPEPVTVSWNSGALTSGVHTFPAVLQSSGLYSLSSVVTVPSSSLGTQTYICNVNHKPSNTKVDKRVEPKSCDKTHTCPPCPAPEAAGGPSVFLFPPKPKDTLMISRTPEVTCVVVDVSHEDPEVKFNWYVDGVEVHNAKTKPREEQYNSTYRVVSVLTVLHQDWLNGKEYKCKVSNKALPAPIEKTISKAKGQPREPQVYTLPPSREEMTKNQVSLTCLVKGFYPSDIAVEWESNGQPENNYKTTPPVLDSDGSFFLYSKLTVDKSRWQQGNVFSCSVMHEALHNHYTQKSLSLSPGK
light: B7 light
notes: also called humanized A2-27D-H2/L2 (IgG1 LALA); humanized A2-27D antibody (LALA)
Kd [3]: 13.6 nM

B9: humanized hA2-27D-H3/L4 (antibody, human IgG1)
heavy: not shown
light: B7 light with L11M, L13A, A19V, Q41A, F70Y, L77M, V84T, Q100A, V104L, I106L
notes: as for B7
Kd [2]: 4.3 nM

B10: humanized hA2-27D-H3/L4 (IgG1 LALA) (antibody)
heavy: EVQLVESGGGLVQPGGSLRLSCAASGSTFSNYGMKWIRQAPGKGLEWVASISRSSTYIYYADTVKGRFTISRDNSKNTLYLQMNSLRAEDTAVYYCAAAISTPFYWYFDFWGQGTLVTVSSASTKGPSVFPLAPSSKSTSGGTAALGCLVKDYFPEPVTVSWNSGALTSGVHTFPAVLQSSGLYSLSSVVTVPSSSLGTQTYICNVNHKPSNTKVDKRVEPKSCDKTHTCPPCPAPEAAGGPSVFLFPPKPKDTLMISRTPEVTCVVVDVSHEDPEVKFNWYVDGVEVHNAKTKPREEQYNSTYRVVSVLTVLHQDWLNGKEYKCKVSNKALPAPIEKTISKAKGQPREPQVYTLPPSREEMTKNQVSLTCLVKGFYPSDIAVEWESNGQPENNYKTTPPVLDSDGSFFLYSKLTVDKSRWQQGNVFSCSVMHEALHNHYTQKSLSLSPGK
light: B7 light with L11M, L13A, A19V, Q41A, F70Y, L77M, V84T, Q100A, V104L, I106L
Kd [3]: 13.3 nM

B11: humanized hA2-11E-H3/L3 (antibody, human IgG1, kappa, V domains shown)
VH: EVQLVESGGGLVQPGGSLRLSCAASGFTFSNYYMYWIRQAPGKGLEWVSSINTDGGSTYYADSVKGRFTISRDNSKNTVYLQMNSLRAEDTAVYYCAKSTPNIPLAYWGQGTLVTVSS
VL: DIQMTQSPSSLSASVGDRVTITCKASQNIYKYLNWFQQKPGKAPKLLIYYSNSLQTGIPSRFSGSGSGTDFTLTISSLQPEDFATYYCFQYSSGPTFGQGTKVEIKR
notes: as for B1
Kd [1]: 47.4 nM

B12: humanized hA2-11E-H3/L2 (antibody, human IgG1, kappa, V domains shown)
VH: B11 VH
VL: B11 VL with I58V
notes: as for B1
Kd [1]: 63.1 nM

B13: humanized hA2-11E-H4/L3 (antibody, human IgG1, kappa, V domains shown)
VH: B11 VH with V48I, A61P
VL: B11 VL
notes: as for B1
Kd [1]: 18.5 nM

B15: humanized hA2-11E-H3/L4 (antibody, human IgG1, kappa, V domains shown)
VH: B11 VH
VL: B11 VL with T22S, K42E, T85I, Y87F, Q99P
notes: as for B1
Kd [1]: 31.3 nM

B18: humanized hA2-15A-H4/L6 (IgG2) (antibody)
heavy: EVQLVESGGGLVQPGGSLRLSCAASGFTFSHYYMAWVRQAPGKGLEWVASITNSGGSINYRDSVKGRFTISRDNAKSTLYLQMNSLRAEDTATYYCTREGGENYGGYPPFAYWGQGTLVTVSSASTKGPSVFPLAPCSRSTSESTAALGCLVKDYFPEPVTVSWNSGALTSGVHTFPAVLQSSGLYSLSSVVTVPSSNFGTQTYTCNVDHKPSNTKVDKTVERKCCVECPPCPAPPVAGPSVFLFPPKPKDTLMISRTPEVTCVVVDVSHEDPEVQFNWYVDGVEVHNAKTKPREEQFNSTFRVVSVLTVVHQDWLNGKEYKCKVSNKGLPAPIEKTISKTKGQPREPQVYTLPPSREEMTKNQVSLTCLVKGFYPSDIAVEWESNGQPENNYKTTPPMLDSDGSFFLYSKLTVDKSRWQQGNVFSCSVMHEALHNHYTQKSLSLSPGK
light: DIVLTQSPDSLAVSLGERATINCRANQGVSLSRYNLMHWYQQKPGQKPKLLIYRSSNLAQGIPARFSGSGSGTDFTLTISSVQADDIAVYYCQQSRESPFTFGQGTKLELKRAVAAPSVFIFPPSDEQLKSGTASVVCLLNNFYPREAKVQWKVDNALQSGNSQESVTEQDSKDSTYSLSSTLTLSKADYEKHKVYACEVTHQGLSSPVTKSFNRGEC
notes: Human IgG2, kappa; also called humanized A2-15A-H4/L6 (IgG2); humanized A2-15A antibody (IgG2)
Kd [3]: 17.4 nM

Results, then the binder that gave them:

Kd [1]: 116 nM
B2: humanized hA2-25C-H3/L1 (antibody, human IgG1, kappa, V domains shown)
VH: B1 VH
VL: B1 VL with R66G, Y71F
notes: as for B1

Kd [1]: 64.4 nM
B4: humanized hA2-25C-H3/L3 (antibody, human IgG1, kappa, V domains shown)
VH: B1 VH
VL: B1 VL with A43S, D70Q, Q100S
notes: as for B1

Kd [1]: 56.7 nM
B6: humanized hA2-25C-H4/L2 (antibody, human IgG1, kappa, V domains shown)
VH: B1 VH with V93T, T112V
VL: B1 VL
notes: as for B1

Kd [1]: 19.9 nM
B14: humanized hA2-11E-H4/L2 (antibody, human IgG1, kappa, V domains shown)
VH: B11 VH with V48I, A61P
VL: B11 VL with I58V
notes: as for B1

Kd [1]: 11.1 nM
B16: humanized hA2-11E-H4/L4 (antibody, human IgG1, kappa, V domains shown)
VH: B11 VH with V48I, A61P
VL: B11 VL with T22S, K42E, T85I, Y87F, Q99P
notes: as for B1

Kd [2]: 4.3 nM
B17: humanized hA2-15A-H4/L6 (antibody, human IgG1)
heavy: not shown
light: B18 light
notes: Human IgG1, kappa; also called humanized A2-15A antibody (IgG1)
